One series addresses T1, AmtB (EcAmtB) (Escherichia coli, UniProt P69681).
T1 construct: AmtB(His)6 from pET22b(+), expressed in E. coli C43, purified, reconstituted into liposomes; homotrimer; 1U7G for the simulations only
T1 sequence (P69681 23-428): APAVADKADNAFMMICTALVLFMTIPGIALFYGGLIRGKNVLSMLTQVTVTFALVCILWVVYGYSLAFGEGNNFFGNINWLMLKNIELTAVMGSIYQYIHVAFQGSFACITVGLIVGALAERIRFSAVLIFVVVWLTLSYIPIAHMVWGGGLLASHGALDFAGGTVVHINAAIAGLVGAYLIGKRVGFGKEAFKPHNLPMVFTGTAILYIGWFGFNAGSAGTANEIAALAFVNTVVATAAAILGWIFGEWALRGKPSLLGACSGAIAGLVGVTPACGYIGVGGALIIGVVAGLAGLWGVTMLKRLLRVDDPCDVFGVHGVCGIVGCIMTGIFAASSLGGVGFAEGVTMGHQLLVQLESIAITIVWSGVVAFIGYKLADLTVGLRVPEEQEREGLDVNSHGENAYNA
The series can be described thus: solid supported membrane electrophysiology (SSME), proteoliposomes. In kind it is biochemical. To be noted: read-out: Ammonium; transport; maximum transient current amplitude. From the text:
(§1) solid supported membrane electrophysiology (SSME), proteoliposomes on AmtB (EcAmtB)

Substrate in series [1]: CN
The series is described as above. Format: biochemical, Escherichia coli. The note with it: transport; maximum transient current amplitude.
Excerpt: as §1

Substrate in the series “purified protein”: N
The series can be described thus: purified protein. The note with it: transport; maximum transient current amplitude.

Residue numbers refer to the chain shown, from its start. Names and notes keep the numbering of the source.

In the case of `N` [ammonium], at AmtB (EcAmtB), the Km is 0.8 ± 0.1 mM.

B1: AmtB (EcAmtB) (Escherichia coli K-12) (protein)
chain: T1 sequence (P69681 23-428)
notes: AmtB(His)6 from pET22b(+), expressed in E. coli C43, purified, reconstituted into liposomes; homotrimer; 1U7G for the simulations only
With B1, the Km in series [1] was determined as 49.86 ± 4.76 mM.

B2: AmtB (EcAmtB) (Escherichia coli K-12; H190E) (protein)
chain: T1 sequence (P69681 23-428) with H168E
notes: as for B1
Turning to B2, the Km in series [1] turned out to be 86.00 ± 9.46 mM; in the series “purified protein”, 12.87 ± 7.79 mM.

B3: AmtB (EcAmtB) (Escherichia coli K-12; H190D) (protein)
chain: T1 sequence (P69681 23-428) with H168D
notes: as for B1
On to B3, for which the Km in series [1] is on record as 55.09 ± 12.67 mM; in “purified protein” it was 14.02 ± 4.08 mM.

These data come from publication PMC9040831 (mBio, 2022).
